Data reported in article PMC9998874, “Deacetylation induced nuclear condensation of HP1γ promotes multiple myeloma drug resistance” (Nature Communications, 2023).

T1: GST-MDC1-mC-IDR1 (UniProt Q14676 143-339)
T1 construct: MDC1 intrinsically disordered region 1 (IDR1), residues 143-339; In the droplet and turbidity assays the protein is called mCherry-MDC1-IDR1; also called GST-tagged-mCherry-MDC1-IDR1; MDC1-IDR1; source: purified
T1 sequence (looked up): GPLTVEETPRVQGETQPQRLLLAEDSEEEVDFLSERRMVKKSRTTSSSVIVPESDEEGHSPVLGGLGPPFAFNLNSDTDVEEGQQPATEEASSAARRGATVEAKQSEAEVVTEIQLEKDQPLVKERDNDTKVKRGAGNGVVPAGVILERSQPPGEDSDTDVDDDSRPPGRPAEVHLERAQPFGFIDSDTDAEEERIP

T2: GST-MDC1-mC-IDR2 (UniProt Q14676 354-539)
T2 construct: MDC1 intrinsically disordered region 2 (IDR2), residues 354-539; In the droplet and turbidity assays the protein is called mCherry-MDC1-IDR2; also called GST-tagged-mCherry-MDC1-IDR2; MDC1-IDR2; source: purified
T2 sequence (looked up): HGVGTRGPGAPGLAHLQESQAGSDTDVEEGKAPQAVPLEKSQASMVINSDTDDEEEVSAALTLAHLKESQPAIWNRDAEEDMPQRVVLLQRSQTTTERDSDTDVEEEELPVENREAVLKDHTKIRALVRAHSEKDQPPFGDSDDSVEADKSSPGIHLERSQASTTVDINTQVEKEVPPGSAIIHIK


Columns and labels:
Details in all cases: both partners purified
GST-MDC1-mC-IDR1 = biological target: T1, GST-MDC1-mC-IDR1; assay: pull-down; GST pull-down in vitro: GST-tagged mCherry-MDC1-IDR1 or -IDR2 held, purified HP1γ-GFP
GST-MDC1-mC-IDR2 = biological target: T2, GST-MDC1-mC-IDR2; assay: as above
purified HDAC1-flag = biological target: T3, purified HDAC1-flag (UniProt Q13547 1-482); assay: pull-down; GST pull-down in vitro: GST-tagged HP1γ held, purified HDAC1-flag as input
T3 construct: histone deacetylase 1 with a flag tag; also called HDAC1-flag fusion protein; flag-HDAC1; source: HEK293T, expressed, purified
T3 sequence (Q13547 whole entry, the tested form may be a part): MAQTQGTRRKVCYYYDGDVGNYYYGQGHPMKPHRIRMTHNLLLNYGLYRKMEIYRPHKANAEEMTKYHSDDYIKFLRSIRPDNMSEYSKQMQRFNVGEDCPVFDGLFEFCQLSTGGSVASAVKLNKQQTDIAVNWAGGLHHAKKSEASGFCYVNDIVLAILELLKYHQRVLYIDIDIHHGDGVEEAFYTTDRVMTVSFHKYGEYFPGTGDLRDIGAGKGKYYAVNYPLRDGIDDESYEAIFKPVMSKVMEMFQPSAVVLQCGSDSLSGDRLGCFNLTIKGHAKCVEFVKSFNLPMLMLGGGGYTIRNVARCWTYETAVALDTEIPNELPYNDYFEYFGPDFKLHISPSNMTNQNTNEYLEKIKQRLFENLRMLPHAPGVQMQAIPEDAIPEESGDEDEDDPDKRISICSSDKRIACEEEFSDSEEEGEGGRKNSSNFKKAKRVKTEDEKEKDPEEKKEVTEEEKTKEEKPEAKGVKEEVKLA

purified HP1γ-GFP, sequence (Q13185 whole entry, change not shown): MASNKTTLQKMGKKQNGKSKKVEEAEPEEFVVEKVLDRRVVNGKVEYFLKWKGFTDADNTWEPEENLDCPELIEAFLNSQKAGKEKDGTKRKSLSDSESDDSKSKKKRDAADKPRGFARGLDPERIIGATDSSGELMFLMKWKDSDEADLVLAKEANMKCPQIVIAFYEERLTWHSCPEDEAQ

| binding result (GST-MDC1-mC-IDR1) | binding result (GST-MDC1-mC-IDR2) | binding result (purified HDAC1-flag) | Binder |
| --- | --- | --- | --- |
| binds | binds |  | purified HP1γ-GFP (natural protein, HP1γ (CBX3) fused to GFP; the HP1γ-GFP of the pull-down is probably the full-length one (surmised); also called GFP-HP1γ; source: E. coli BL21, purified (glutathione agarose, released by HRV 3C protease)) not shown |
|  |  | binds | GST-fusion HP1γ protein (natural protein, HP1γ (CBX3) fused to GST; Probably made in E. coli BL21 as the other GST fusions of the methods (surmised); also called GST-HP1γ; GST-tagged-HP1γ; source: purified GST-fusion protein ('in vitro expression')) not shown |
